Series [1] addresses 17β-HSD type 1 (Homo sapiens) (UniProt P14061). The conditions noted are these: cited from earlier work.
Series [2] deals with NC(=O)C1=CN([C@@H]2O[C@H](COP(=O)(O)OP(=O)(O)OC[C@H]3O[C@@H](n4cnc5c(N)ncnc54)[C@H](OP(=O)(O)O)[C@@H]3O)[C@@H](O)[C@H]2O)C=CC1. The experiment in a line: purified protein. In kind it is biochemical, Curvularia lunata. The settings on record: reduction of 4-estrene-3,17-dione (100 μM), 100 mM phosphate pH 8.0, 25°C, 1% DMF, varied: cofactor.
The subject of series [3] is NC(=O)c1ccc[n+]([C@@H]2O[C@H](COP(=O)(O)OP(=O)(O)OC[C@H]3O[C@@H](n4cnc5c(N)ncnc54)[C@H](OP(=O)(O)O)[C@@H]3O)[C@@H](O)[C@H]2O)c1. The experiment in a line: purified protein. In kind it is biochemical, Curvularia lunata. The settings on record: oxidation of 4-estrene-17β-ol-3-one (100 μM), 100 mM phosphate pH 8.0, 25°C, 1% DMF, varied: cofactor.
Series [4] addresses 17β-HSDcl-His111Ala (Cochliobolus lunatus). The experiment in a line: SEC; gel filtration on TSK G4000 SWxl, 100 mM phosphate buffer with 150 mM NaCl, pH 7.0; about 40 μg protein in 100 μl injected, 1.0 ml/min; mass by calibration standards. On the technique in general: SEC sorts molecules by how far they enter the pores of the column.
Series [5] addresses T1, 17β-HSDcl (Curvularia lunata, UniProt O93874, H111L).
T1 construct: gene 17HSDcl; GST fusion (pGex-17β-HSDcl) from E. coli JM107, GST cut off with thrombin; 28 kDa subunit; wild type and H111A homodimeric, H111L and R129D monomeric
The experiment in a line: intrinsic fluorescence quenching titration. In kind it is binding. The text has this:
(§1) intrinsic fluorescence quenching titration on 17β-HSDcl

In series [6] the target is T2, 17β-HSDcl (Curvularia lunata, UniProt O93874, R129D).
T2 construct: gene 17HSDcl; GST fusion (pGex-17β-HSDcl) from E. coli JM107, GST cut off with thrombin; 28 kDa subunit; wild type and H111A homodimeric, H111L and R129D monomeric
As to the kind of experiment: intrinsic fluorescence quenching titration. It is filed as binding.
From the text: as §1

Series [7] concerns the target T3, 17β-HSDcl (Curvularia lunata, UniProt O93874, H111A).
T3 construct: gene 17HSDcl; GST fusion (pGex-17β-HSDcl) from E. coli JM107, GST cut off with thrombin; 28 kDa subunit; wild type and H111A homodimeric, H111L and R129D monomeric
As to the kind of experiment: intrinsic fluorescence quenching titration. In kind it is binding.
From the text: as §1

Series [8] deals with the molecule itself. The experiment in a line: SEC; gel filtration on TSK G4000 SWxl, 100 mM phosphate buffer with 150 mM NaCl, pH 7.0; about 40 μg protein in 100 μl injected, 1.0 ml/min; mass by calibration standards.

Regarding 17β-HSD type 1 (from UniProt P14061), in series [1], the Kd (in general, the concentration at which binding is half-saturated) was less than 5 pM.

For 17β-HSDcl (Curvularia lunata; H111A), in series [2], the Km (commonly the concentration of substrate that gives half-maximal velocity) turned out to be 50.6 µM; the kcat (as a rule, the number of substrate molecules converted per active site and unit of time at saturation) worked out at 2.4 s⁻¹; the kcat/Km (usually the second-order rate constant that governs catalysis at low substrate concentration) came to 47000 M⁻¹ s⁻¹. In addition, in series [3], the Km stood at 4.6 µM, the kcat came to 0.9 s⁻¹ and the kcat/Km is 190000 M⁻¹ s⁻¹.

With 17β-HSDcl-His111Ala (enzyme), the stoichiometry N – broadly, a count of units in the complex or per binding partner – in series [4] is 2.

On to `NC(=O)c1ccc[n+]([C@@H]2O[C@H](COP(=O)(O)OP(=O)(O)OC[C@H]3O[C@@H](n4cnc5c(N)ncnc54)[C@H](OP(=O)(O)O)[C@@H]3O)[C@@H](O)[C@H]2O)c1` [NADP^+], for which the Kd on 17β-HSDcl [5] was 19.9 µM; at 17β-HSDcl [6] it was 12.8 µM; at 17β-HSDcl [7], 5.8 µM.

B1: 17β-hydroxysteroid dehydrogenase from Cochliobolus lunatus, wild type (enzyme, UniProt O93874 1-270, looked up)
chain: MPHVENASETYIPGRLDGKVALVTGSGRGIGAAVAVHLGRLGAKVVVNYANSTKDAEKVVSEIKALGSDAIAIKADIRQVPEIVKLFDQAVAHFGHLDIAVSNSGVVSFGHLKDVTEEEFDRVFSLNTRGQFFVAREAYRHLTEGGRIVLTSSNTSKDFSVPKHSLYSGSKGAVDSFVRIFSKDCGDKKITVNAVAPGGTVTDMFHEVSHHYIPNGTSYTAEQRQQMAAHASPLHRNGWPQDVANVVGFLVSKEGEWVNGKVLTLDGGAA
notes: expected molecular mass 28 kDa; also called 17β-HSDcl; fungal 17β-HSD; source: E. coli JM107, GST fusion, purified (Glutathione Sepharose, thrombin cleavage)
Turning to B1, the “stoichiometry N” value in series [8] is 2.

These data come from PMC1326212, “Dimerization and enzymatic activity of fungal 17β-hydroxysteroid dehydrogenase from the short-chain dehydrogenase/reductase superfamily” (BMC Biochemistry, 2005).
